# Biological target: T1, gB/VP22trunc binding (Human herpesvirus 1, UniProt P10211)
# T1 construct: linked residues 798 to 904 of gB to the glutathione-S-transferase (GST) protein expressed by pGex2TNMCR; made in house; host or cells: GST-gB: E. coli DH5alpha; VP22trunc: E. coli BL21(DE3)
# Test: Far Western analysis of peptide inhibition of GST-gB binding to VP22trunc
# Design: species or system HSV-1
# Details: peptide 250 μg/ml co-incubated with GST-gB 1.2 μg/ml; FIG. 12B
# Procedure: (B) Inhibition of binding of GST-gB (final concentration 1.2 μg/ml)and each of the following peptides at a final concentration of 250 μg/ml: lane 1, no peptide; lane 2, peptide A; lane 3, peptide B; lane 4, peptide C; lane 5, peptide D; lane 6, peptide E; lane 7, peptide F; lane 8, peptide G; lane 9, peptide H; lane 10, peptide I; lane 11, peptide J. Bound GST-gB was detected with anti-GST antibody.
# Following electrophoresis, proteins were electrotransferred to either Hybond or ProBlott (Applied Biosystems) membrane and the membrane was incubated in renaturation buffer (50 mM Tris-HCl, pH 8.0, 150 mM NaCl, 10% glycerol, 1 mM DTT) at 4° C. for 5-6 hours.
# For membranes probed with GST-gB, blocking was performed overnight in PBSA containing 1% non-fat dried milk and 0.05% Tween 20 at 4° C. Membranes were then washed twice in renaturation buffer (10 min/wash) prior to incubation with fusion protein (final concentration 0.5 μg/ml) in renaturation buffer containing 1% BSA. Incubation was again performed overnight at 4° C. Following washing with renaturation buffer (four times, 10 minutes/wash) and a brief rinse with blocking buffer, the membrane was incubated with anti-GST antibody in PBSA, 1% non-fat dried milk, 0.05% Tween 20 and 1% BSA for 1 hour at ambient temperature. After four washes with PBSA, 0.05% Tween 20 (10 minutes/wash), bound antibody was detected with secondary antibody (goat anti-rabbit IgG, whole molecule; Sigma) conjugated to Horse Radish Peroxidase (HRP) by incubating at room temperature for 45 minutes. Following four further washes with PBSA, 0.05% Tween 20, the secondary antibody was visualised by enhanced chemiluminescence.
# Similar to the studies performed with inhibition of binding of VP16 to VP22, peptides A to J, which span residues 18 to 144 of VP22trunc, were used to examine whether gB binding could also be prevented (FIG. 12B).
# T1 sequence (P10211 798-904): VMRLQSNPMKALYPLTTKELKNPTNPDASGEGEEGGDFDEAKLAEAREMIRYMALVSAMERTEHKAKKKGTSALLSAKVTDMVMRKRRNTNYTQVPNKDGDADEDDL
sequence,measurement,value
CAAVGRLAAMHARMAAVQLW [Peptide E],Inhibition of GST-gB binding to VP22trunc (Far Western),completely inhibited binding of gB
TPRVAGFNKRVFCAAVGRLA [Peptide D],Inhibition of GST-gB binding to VP22trunc (Far Western),completely inhibited binding of gB
